Data reported in patent publication US20190194660A1 (UNIVERSITY OF SHEFFIELD, published 2019).

Biological target: T1, endogenous NXF1 in mouse neuronal N2A cells (mouse (endogenous in mouse neuronal N2A …, UniProt Q99JX7 2-618))
T1 construct: Detected with anti-NXF1 clone 53H8 after anti-FLAG immunoprecipitation; also called TAP/NXF1; nuclear export factor 1
T1 sequence (looked up): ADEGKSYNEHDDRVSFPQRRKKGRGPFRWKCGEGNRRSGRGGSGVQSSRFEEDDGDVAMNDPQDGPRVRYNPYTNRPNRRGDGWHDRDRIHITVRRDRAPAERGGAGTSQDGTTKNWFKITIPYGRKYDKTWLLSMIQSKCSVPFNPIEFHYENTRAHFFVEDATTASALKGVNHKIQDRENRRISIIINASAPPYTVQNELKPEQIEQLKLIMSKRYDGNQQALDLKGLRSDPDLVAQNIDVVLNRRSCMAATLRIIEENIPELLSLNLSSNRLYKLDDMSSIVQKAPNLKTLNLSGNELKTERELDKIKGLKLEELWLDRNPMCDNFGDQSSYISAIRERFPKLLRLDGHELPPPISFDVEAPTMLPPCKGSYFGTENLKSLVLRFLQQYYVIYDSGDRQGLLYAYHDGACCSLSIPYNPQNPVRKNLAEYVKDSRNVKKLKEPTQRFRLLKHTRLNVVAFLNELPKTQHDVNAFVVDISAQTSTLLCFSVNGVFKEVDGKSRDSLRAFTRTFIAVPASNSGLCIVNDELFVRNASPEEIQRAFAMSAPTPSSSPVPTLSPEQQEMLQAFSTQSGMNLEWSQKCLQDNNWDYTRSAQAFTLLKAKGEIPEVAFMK
Experiment: anti-FLAG co-immunoprecipitation of endogenous NXF1 from transfected N2A cells (FIG. 6)
Description: Co-immunoprecipitation of endogenous NXF1 is assessed using anti-NXF1 antibodies;

binding result: no binding
B1: FLAG-tagged SRSF1 11-196 quadruple mutant (SRSF1-m4) (other)
chain: AGNNDCRIYVGNLPPDIRTKDIEDVFYKYGAIRDIDLKNRRGGPPFAFVEFEDPRDAEDAVYGRDGYDYDGYRLRVEFPASGAGTGRGGGGGGGGGAPRGRYGPPSAASENRVVVSGLPPSGSWQDLKDHMREAGDVCYADVYRDGTGVVEFVRKEDMTYAVRKLDNTKFRSHEGETAYIRVKVDG
notes: also called p3xFLAG/SRSF1 (11-196)-m4; dominant negative mutant SRSF1-m4; not shown: FLAG tag from the p3xFLAG vector (Sigma)
